Experimental data published in patent publication US20040091974A1 (KIRIN BEER, published 2004).
cellulose membrane = peptide bound to a cellulose membrane through the C-terminus

Legend:
[1] = target: T1, 13-mer peptide, amino acids 61 to 73 of the HLA-DR β chain (DRB1*15011) (human); assay: SPOT 13-mer peptide array on cellulose membrane, chemiluminescence
T1 peptide: Ac-WNSQKDILEQARA-{cellulose membrane}
Method: (§1) The epitope of each antibody was analyzed by Western blotting in accordance with a conventional technique. In simple terms, a cellulose or PVDF membrane was blocked with Block Ace (Yukijirushi), etc., each antibody was allowed to react therewith at 1 μg/mL as a primary antibody and at 0.5 μg/mL as a secondary antibody using […], the HRP-labeled anti-human antibody (e.g., DAKO) was allowed to react therewith, and the chemiluminescence was detected using a chemiluminescent reagent (e.g., ECL Western blotting detection reagent, Amersham Bioscience) and a chemiluminescence detector (e.g., LAS-1000, Fuji Film).
(§2) The subsequent reaction was carried out based on conventional Western blot analysis (see, for example, Reineke, U. et al., (2001), “Epitope mapping with synthetic peptides prepared by SPOT synthesis.” Antibody Engineering (Springer Lab Manual) Eds.: Kontermann/Dubel, 433459). In the analysis, LumilmagerTM (Boehringer-Mannheim) was used to represent the color intensity in each spot by numerical values.

[2] = target: T2, SEQ ID NO 51 (human); assay: alanine-substituted 61-73 peptide spots, chemiluminescence
T2 construct: The entry already carries the substitution
T2 peptide: Ac-WNSQKDLLEQRAA-{cellulose membrane}
Method: as §1, §2
(§3) Further, 12 peptides (SEQ ID Nos: 40 to 51) in which each amino acid has been substituted with alanine ([…] if it is originally alanine) were subjected to Western blotting under similar conditions. In the analysis, LAS2000 and ImageGauge analyzing software (Fuji Photo Film) were used to represent the color intensity in each spot by numerical values.

[3] = target: T3, SEQ ID NO 40 (human); assay: as above
T3 construct: The entry already carries the substitution
T3 peptide: Ac-WNSQKDALEQRRA-{cellulose membrane}
Method: as §1, §2, §3

[4] = target: T4, SEQ ID NO 44 (human); assay: as above
T4 construct: The entry already carries the substitution
T4 peptide: Ac-ANSQKDLLEQRRA-{cellulose membrane}
Method: as §1, §2, §3

[5] = target: T5, SEQ ID NO 45 (human); assay: as above
T5 construct: The entry already carries the substitution
T5 peptide: Ac-WASQKDLLEQRRA-{cellulose membrane}
Method: as §1, §2, §3

[6] = target: T6, SEQ ID NO 46 (human); assay: as above
T6 construct: The entry already carries the substitution
T6 peptide: Ac-WNAQKDLLEQRRA-{cellulose membrane}
Method: as §1, §2, §3

[7] = target: T7, SEQ ID NO 43 (human); assay: as above
T7 construct: The entry already carries the substitution
T7 peptide: Ac-WNSQKDLLEQRRG-{cellulose membrane}
Method: as §1, §2, §3

[8] = target: T8, SEQ ID NO 47 (human); assay: as above
T8 construct: The entry already carries the substitution
T8 peptide: Ac-WNSAKDLLEQRRA-{cellulose membrane}
Method: as §1, §2, §3

[9] = target: T9, SEQ ID NO 50 (human); assay: as above
T9 construct: The entry already carries the substitution
T9 peptide: Ac-WNSQKDLLAQRRA-{cellulose membrane}
Method: as §1, §2, §3

[10] = target: T10, SEQ ID NO 42 (human); assay: as above
T10 construct: The entry already carries the substitution
T10 peptide: Ac-WNSQKDLLEQARA-{cellulose membrane}
Method: as §1, §2, §3

[11] = target: T11, SEQ ID NO 49 (human); assay: as above
T11 construct: The entry already carries the substitution
T11 peptide: Ac-WNSQKALLEQRRA-{cellulose membrane}
Method: as §1, §2, §3

[12] = target: T12, SEQ ID NO 41 (human); assay: as above
T12 construct: The entry already carries the substitution
T12 peptide: Ac-WNSQKDLLEARRA-{cellulose membrane}
Method: as §1, §2, §3

[13] = target: T13, SEQ ID NO 48 (human); assay: as above
T13 construct: The entry already carries the substitution
T13 peptide: Ac-WNSQADLLEQRRA-{cellulose membrane}
Method: as §1, §2, §3

[14] = target: T14, SEQ ID NO 27 (human); assay: polymorphic 61-73 peptide spots, chemiluminescence
T14 peptide: Ac-WNSQKDFLEQARA-{cellulose membrane}
Method: as §1
(§4) The subsequent reaction was carried out based on conventional Western blot analysis (see, for example, Reineke, U. et al., (2001), “Epitope mapping with synthetic peptides prepared by SPOT synthesis.” Antibody Engineering (Springer Lab Manual) Eds.: Kontermann/Dubel, 433459). In the analysis, LumilmagerTM (Boehringer-Mannheim) was used to represent the color intensity in each spot by numerical values. […]

[15] = target: T15, SEQ ID NO 37 (human); assay: polymorphic 61-73 peptide spots, chemiluminescence
T15 peptide: Ac-WNSQKDLLEDRRA-{cellulose membrane}
Method: as §1, §4

[16] = target: T16, SEQ ID NO 38 (human); assay: polymorphic 61-73 peptide spots, chemiluminescence
T16 peptide: Ac-WNSQKDLLERRRA-{cellulose membrane}
Method: as §1, §4

[17] = target: T17, SEQ ID NO 30 (human); assay: polymorphic 61-73 peptide spots, chemiluminescence
T17 peptide: Ac-WNSQKDILEDRRA-{cellulose membrane}
Method: as §1, §4

[18] = target: T18, SEQ ID NO 34 (human); assay: polymorphic 61-73 peptide spots, chemiluminescence
T18 peptide: Ac-WNSQKDLLEQRRA-{cellulose membrane}
Method: as §1, §4

[19] = target: T19, SEQ ID NO 25 (human); assay: polymorphic 61-73 peptide spots, chemiluminescence
T19 peptide: Ac-WNSQKDFLERRRA-{cellulose membrane}
Method: as §1, §4

[20] = target: T20, SEQ ID NO 28 (human); assay: polymorphic 61-73 peptide spots, chemiluminescence
T20 peptide: Ac-WNSQKDILEDERA-{cellulose membrane}
Method: as §1, §4

[21] = target: T21, SEQ ID NO 31 (human); assay: polymorphic 61-73 peptide spots, chemiluminescence
T21 peptide: Ac-WNSQKDILEDRRG-{cellulose membrane}
Method: as §1, §4

[22] = target: T22, SEQ ID NO 33 (human); assay: polymorphic 61-73 peptide spots, chemiluminescence
T22 peptide: Ac-WNSQKDILEQARA-{cellulose membrane}
Method: as §1, §4

[23] = target: T23, SEQ ID NO 35 (human); assay: polymorphic 61-73 peptide spots, chemiluminescence
T23 peptide: Ac-WNSQKDLLEQARA-{cellulose membrane}
Method: as §1, §4

[24] = target: T24, SEQ ID NO 29 (human); assay: polymorphic 61-73 peptide spots, chemiluminescence
T24 peptide: Ac-WNSQKDILEQKRG-{cellulose membrane}
Method: as §1, §4

[25] = target: T25, SEQ ID NO 24 (human); assay: polymorphic 61-73 peptide spots, chemiluminescence
T25 peptide: Ac-WNSQKDFLEDRRA-{cellulose membrane}
Method: as §1, §4

[26] = target: T26, SEQ ID NO 36 (human); assay: polymorphic 61-73 peptide spots, chemiluminescence
T26 peptide: Ac-WNSQKDLLEQKRG-{cellulose membrane}
Method: as §1, §4

[27] = target: T27, SEQ ID NO 39 (human); assay: polymorphic 61-73 peptide spots, chemiluminescence
T27 peptide: Ac-WNSQKDLLEDERA-{cellulose membrane}
Method: as §1, §4

[28] = target: T28, SEQ ID NO 26 (human); assay: polymorphic 61-73 peptide spots, chemiluminescence
T28 peptide: Ac-WNSQKDFLEDERA-{cellulose membrane}
Method: as §1, §4

[29] = target: T29, SEQ ID NO 32 (human); assay: polymorphic 61-73 peptide spots, chemiluminescence
T29 peptide: Ac-WNSQKDILEDKRA-{cellulose membrane}
Method: as §1, §4

[30] = target: T30, 13-mer peptide, amino acids 65 to 77 of the HLA-DR β chain (DRB1*15011) (human); assay: SPOT 13-mer peptide array on cellulose membrane, chemiluminescence
T30 peptide: Ac-KDILEQARAAVDT-{cellulose membrane}
Method: as §1, §2

B1: HD4 (antibody, IgG1, V domains shown)
VH: EVQLLESGGGLVQPGGSLRLSCAASGFTFSSYAMTWVRQAPGKGLEWVSGISGGGDSTYYADSVKGRFTISRDNSKNTLYLQMNSLRAEDTAVYYCARDHGSGSYYPYWFDYWGQGTLVTVSS
VL: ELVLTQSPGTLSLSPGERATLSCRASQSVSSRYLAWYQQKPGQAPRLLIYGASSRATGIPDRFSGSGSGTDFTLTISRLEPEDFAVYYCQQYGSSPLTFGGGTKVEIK
notes: also called antibody produced from the hybridoma HD4 (FERM BP-7771)
B1: binds [1].

B2: HD8 (antibody, IgG2, V domains shown)
VH: QVQLQHSGPGLVKPSQTLSLTCAISGDSVSSNSASWNWIRQSPSRGLEWLGRTYYRSKWYNDYAVSVKSRIVINPDTSKNQFSLQLNSVTPEDTAVYYCARENFYGSETCHKKYYCYGMDVWGQGTTVTVSS
VL: AIQLTQSPSSLSASVGDRVTITCRASQGISSALAWYQQKPGKAPKLLIYDASSLESGVPSRFSGSGSGTDFTLTISSLQPEDFATYYCQQFNSFPLTFGGGTKVEIK
notes: also called antibody produced from the hybridoma HD8 (FERM BP-7773)
B2: no binding (tested: 1 µg/mL) [2]; binds [3]; binds [4]. B2: binds [5]; binds [6]; binds [7]. B2: binds [8]; no binding (tested: 1 µg/mL) [9]; binds [10]. B2: no binding (tested: 1 µg/mL) [11]; binds [12]; no binding (tested: 1 µg/mL) [13]. B2: binds [14]; binds [15]; binds [16]. B2: binds [17]; binds [18]; binds [19]. B2: binds [20]; binds [21]; binds [22]. B2: binds [23]; binds [24]; binds [25]. B2: binds [26]; binds [27]; binds [28]. B2: binds [29]; binds [1]; binds [30].
